Experimental findings from PMC11820146 are described below.

For the experiment, the target named is growth hormone receptor (GHR) (UniProt P10912).
UniProt P10912, sequence (P10912 19-638): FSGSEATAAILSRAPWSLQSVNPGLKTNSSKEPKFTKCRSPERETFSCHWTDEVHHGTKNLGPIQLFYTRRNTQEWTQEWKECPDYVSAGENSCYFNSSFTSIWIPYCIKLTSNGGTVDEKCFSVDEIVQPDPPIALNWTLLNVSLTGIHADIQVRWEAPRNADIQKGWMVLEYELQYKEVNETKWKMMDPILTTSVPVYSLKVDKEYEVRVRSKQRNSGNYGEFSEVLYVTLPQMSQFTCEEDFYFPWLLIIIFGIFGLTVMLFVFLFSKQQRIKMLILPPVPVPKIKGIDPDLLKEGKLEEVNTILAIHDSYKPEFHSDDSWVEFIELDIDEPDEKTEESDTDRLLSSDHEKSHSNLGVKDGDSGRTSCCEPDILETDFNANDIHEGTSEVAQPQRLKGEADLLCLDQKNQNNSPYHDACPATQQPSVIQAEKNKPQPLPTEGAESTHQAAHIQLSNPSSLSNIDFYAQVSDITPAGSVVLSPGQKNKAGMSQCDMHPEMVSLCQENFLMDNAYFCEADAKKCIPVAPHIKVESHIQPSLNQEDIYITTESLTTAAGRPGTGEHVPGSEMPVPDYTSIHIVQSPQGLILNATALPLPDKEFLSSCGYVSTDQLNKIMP

Take “PEG-rhGH isomer P1 (PEGylated recombinant human growth hormone, modified at the N-terminus) (from UniProt P01241 27-217) (ligand)”: the bioactivity relative to the PEG-rhGH reference, reporter gene assay (luciferase, HepG2/IGF-1 cells) turned out to be 71.1%.

In the case of “PEG-rhGH isomer P2 (PEGylated recombinant human growth hormone, modified at K140) (from UniProt P01241 27-217) (ligand)”, the bioactivity relative to the PEG-rhGH reference, reporter gene assay (luciferase, HepG2/IGF-1 cells) came out at 163%. Next, “PEG-rhGH isomer P3 (PEGylated recombinant human growth hormone, modified at K145) (from UniProt P01241 27-217) (ligand)”: 143%; “PEG-rhGH isomer P4 (PEGylated recombinant human growth hormone, modified at K38) (from UniProt P01241 27-217) (ligand)”: 29%.

With “PEG-rhGH isomer P5 (PEGylated recombinant human growth hormone, modified at K158) (from UniProt P01241 27-217) (ligand)”, the bioactivity relative to the PEG-rhGH reference, reporter gene assay (luciferase, HepG2/IGF-1 cells) was found to be 107%.
